Laboratory results from publication PMC7907143, “SPARC coordinates extracellular matrix remodeling and efficient recruitment to and migration of antigen-specific T cells in the brain following infection” (Scientific Reports, 2021).
One block for each molecule: values may come before it.

How the values were obtained:
[1] = molecular target: CXCL10 (UniProt P02778); conditions: cited from earlier work
[2] = molecular target: Secreted Protein, Acidic, Rich in Cysteine (SPARC), recombinant murine (murine) (UniProt P07214); assay: MST; Monolith NT.115; 4.5 nM NT-495-labelled SPARC, unlabelled chemokine titrated; Ca-MST buffer (50 mM Tris pH 7.4, 150 mM NaCl, 2 mM CaCl2, 0.05% Tween 20); room temperature; three measurements; thermophoresis plus t-jump
[3] = molecular target: T1, Secreted Protein, Acidic, Rich in Cysteine (SPARC), recombinant murine (murine, UniProt P07214 18-302, fluorescent label NT-495, covalently linked by NHS coupling (in the thermophoresis only; unlabelled in the gel filtration)); assay: as above; conditions: both partners purified
T1 construct: SPARC, mouse, recombinant; most likely the mature secreted protein; also called recombinant SPARC; source: bought: R&D Systems or Peprotech (recombinant murine)
T1 sequence (looked up): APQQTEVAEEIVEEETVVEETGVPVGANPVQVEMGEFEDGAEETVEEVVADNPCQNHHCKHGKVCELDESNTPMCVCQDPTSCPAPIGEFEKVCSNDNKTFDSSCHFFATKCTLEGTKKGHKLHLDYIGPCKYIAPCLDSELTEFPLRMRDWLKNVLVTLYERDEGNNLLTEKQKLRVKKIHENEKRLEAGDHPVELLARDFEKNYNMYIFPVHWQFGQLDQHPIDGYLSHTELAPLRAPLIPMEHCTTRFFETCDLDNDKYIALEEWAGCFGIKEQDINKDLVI

Molecule: CXCL10 (from UniProt P02778)
Kd [1]: 9000 nM

Kd [2]: 984 nM
Molecule: CCL21, recombinant murine (from UniProt P84444 24-133) (ligand)

Kd [3]: 1.9 nM
B1: CCL19, recombinant murine (ligand, UniProt O70460 26-108, looked up)
chain: GANDAEDCCLSVTQRPIPGNIVKAFRYLLNEDGCRVPAVVFTTLRGYQLCAPPDQPWVDRIIRRLKKSSAKNKGNSTRRSPVS
notes: CCL19, mouse, recombinant; Most likely the mature chemokine without its signal peptide; source: bought: R&D Systems or Peprotech (recombinant murine)
